The record followed here is patent US7445940.

This test has as its target human endoglin (human) (UniProt P17813). The test can be described thus: cell-based or functional assay.
Sequence of UniProt P17813 (P17813 26-658): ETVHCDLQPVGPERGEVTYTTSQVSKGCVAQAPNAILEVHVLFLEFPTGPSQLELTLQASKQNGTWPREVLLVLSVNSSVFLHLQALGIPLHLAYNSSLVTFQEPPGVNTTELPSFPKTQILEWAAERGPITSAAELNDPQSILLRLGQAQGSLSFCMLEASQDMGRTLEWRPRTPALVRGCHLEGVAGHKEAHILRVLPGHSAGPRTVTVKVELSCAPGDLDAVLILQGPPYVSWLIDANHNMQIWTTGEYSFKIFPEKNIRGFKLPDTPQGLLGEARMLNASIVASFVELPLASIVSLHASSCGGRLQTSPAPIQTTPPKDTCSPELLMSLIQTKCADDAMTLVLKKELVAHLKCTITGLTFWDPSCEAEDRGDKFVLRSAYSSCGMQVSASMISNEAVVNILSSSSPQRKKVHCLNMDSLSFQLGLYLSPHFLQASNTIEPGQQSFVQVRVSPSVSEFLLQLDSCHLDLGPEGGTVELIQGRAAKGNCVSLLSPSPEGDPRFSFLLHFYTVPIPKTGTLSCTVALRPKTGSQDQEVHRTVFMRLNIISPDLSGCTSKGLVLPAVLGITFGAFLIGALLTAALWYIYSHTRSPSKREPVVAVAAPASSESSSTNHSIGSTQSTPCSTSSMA

Consider “Murine monoclonal antibody (MAb) 44G4 specific for human endoglin”, for which the EVT outgrowth and migration (EVT outgrowths/villous tip), 24 h after addition (day 2 of culture) (EVT outgrowths/villous tip) came to 2.03; the concentration of maximal stimulation of EVT outgrowth is 1 µg/mL; the fibronectin (FN) synthesis by villous explants, fold increase relative to control is 8 fold.
